Here are results for one molecule from article PMC8650744.

This series addresses HIV-1 Matrix (MA) WT (HIV-1, UniProt C1JB69 1-131). Kind of series: ITC.

B1: tRNALys3 A7U/U66A (structured_RNA)
RNA: GCCCGGUUAGCUCAGUCGGUAGAGCAUCAGACUUUUAAUCUGAGGGUCCAGGGUUCAAGUCCCUGAUCGGGCGCCA
In the case of B1, the binding signal was 2 fold Kd increase vs WT tRNA.
